Measured values from patent publication US20250269027A1.

Biological target: Mesothelin (MSLN) expressed on target cells (human) (UniProt Q13421)
Assay: cell-based or functional assay

EC50 (functional sensitivity), Jurkat NFAT-luciferase, MSLN molecules/cell on HEK293 cells (molecules/cell): 80000
Substance: m912 benchmark MSLN CAR (scFv)
